Experimental data from paper PMC4379501.

Target: T1, cyclo[RGDfK] cell adhesive peptide, surface-bound, light-activated from c[RGD(DMNPB)fK]
T1 chain: RGDFK
Assay: QCM-D; cells (3 × 10^5 cells/ml) injected over a gold-coated quartz crystal carrying a c[RGD(DMNPB)fK]-terminated PEG-thiol SAM, sedimented in stopped flow, peptide activated in situ by LED (360 nm, 1.35 mW cm^-2, 30 s); Δf1 = frequency drop within the first minute after irradiation; 37°C, PBS; also with 10 μM cytochalasin D or 10 μM anti-αVβ3 antibody
Settings: remark: other sources report otherwise

B1: integrin αVβ3 on human umbilical vein endothelial cells (HUVEC), P06756 31-1048; P05106 27-788 (receptor)
chain 1: FNLDVDSPAEYSGPEGSYFGFAVDFFVPSASSRMFLLVGAPKANTTQPGIVEGGQVLKCDWSSTRRCQPIEFDATGNRDYAKDDPLEFKSHQWFGASVRSKQDKILACAPLYHWRTEMKQEREPVGTCFLQDGTKTVEYAPCRSQDIDADGQGFCQGGFSIDFTKADRVLLGGPGSFYWQGQLISDQVAEIVSKYDPNVYSIKYNNQLATRTAQAIFDDSYLGYSVAVGDFNGDGIDDFVSGVPRAARTLGMVYIYDGKNMSSLYNFTGEQMAAYFGFSVAATDINGDDYADVFIGAPLFMDRGSDGKLQEVGQVSVSLQRASGDFQTTKLNGFEVFARFGSAIAPLGDLDQDGFNDIAIAAPYGGEDKKGIVYIFNGRSTGLNAVPSQILEGQWAARSMPPSFGYSMKGATDIDKNGYPDLIVGAFGVDRAILYRARPVITVNAGLEVYPSILNQDNKTCSLPGTALKVSCFNVRFCLKADGKGVLPRKLNFQVELLLDKLKQKGAIRRALFLYSRSPSHSKNMTISRGGLMQCEELIAYLRDESEFRDKLTPITIFMEYRLDYRTAADTTGLQPILNQFTPANISRQAHILLDCGEDNVCKPKLEVSVDSDQKKIYIGDDNPLTLIVKAQNQGEGAYEAELIVSIPLQADFIGVVRNNEALARLSCAFKTENQTRQVVCDLGNPMKAGTQLLAGLRFSVHQQSEMDTSVKFDLQIQSSNLFDKVSPVVSHKVDLAVLAAVEIRGVSSPDHVFLPIPNWEHKENPETEEDVGPVVQHIYELRNNGPSSFSKAMLHLQWPYKYNNNTLLYILHYDIDGPMNCTSDMEINPLRIKISSLQTTEKNDTVAGQGERDHLITKRDLALSEGDIHTLGCGVAQCLKIVCQVGRLDRGKSAILYVKSLLWTETFMNKENQNHSYSLKSSASFNVIEFPYKNLPIEDITNSTLVTTNVTWGIQPAPMPVPVWVIILAVLAGLLLLAVLVFVMYRMGFFKRVRPPQEEQEREQLQPHENGEGNSET
chain 2: GPNICTTRGVSSCQQCLAVSPMCAWCSDEALPLGSPRCDLKENLLKDNCAPESIEFPVSEARVLEDRPLSDKGSGDSSQVTQVSPQRIALRLRPDDSKNFSIQVRQVEDYPVDIYYLMDLSYSMKDDLWSIQNLGTKLATQMRKLTSNLRIGFGAFVDKPVSPYMYISPPEALENPCYDMKTTCLPMFGYKHVLTLTDQVTRFNEEVKKQSVSRNRDAPEGGFDAIMQATVCDEKIGWRNDASHLLVFTTDAKTHIALDGRLAGIVQPNDGQCHVGSDNHYSASTTMDYPSLGLMTEKLSQKNINLIFAVTENVVNLYQNYSELIPGTTVGVLSMDSSNVLQLIVDAYGKIRSKVELEVRDLPEELSLSFNATCLNNEVIPGLKSCMGLKIGDTVSFSIEAKVRGCPQEKEKSFTIKPVGFKDSLIVQVTFDCDCACQAQAEPNSHRCNNGNGTFECGVCRCGPGWLGSQCECSEEDYRPSQQDECSPREGQPVCSQRGECLCGQCVCHSSDFGKITGKYCECDDFSCVRYKGEMCSGHGQCSCGDCLCDSDWTGYYCNCTTRTDTCMSSNGLLCSGRGKCECGSCVCIQPGSYGDTCEKCPTCPDACTFKKECVECKKFDRGALHDENTCNRYCRDEIESVKELKDTGKDAVNCTYKNEDDCVVRFQYYEDSSGKSILYVVEEPECPKGPDILVVLLSVMGAILLIGLAALLIWKLLITIHDRKEFAKFEEERARAKWDTANNPLYKEATSTFTNITYRGT
modifications: here or on the partner: cyclic peptide (cyclo); f = D-phenylalanine
Q: With B1 as the binder, how does the Δf1 read?
A: 0.966 Hz

B2: integrin αVβ3 on stable OV-MZ-6 cell transfectants overexpressing integrin αVβ3, P06756 31-1048; P05106 27-788 (receptor)
chain 1: FNLDVDSPAEYSGPEGSYFGFAVDFFVPSASSRMFLLVGAPKANTTQPGIVEGGQVLKCDWSSTRRCQPIEFDATGNRDYAKDDPLEFKSHQWFGASVRSKQDKILACAPLYHWRTEMKQEREPVGTCFLQDGTKTVEYAPCRSQDIDADGQGFCQGGFSIDFTKADRVLLGGPGSFYWQGQLISDQVAEIVSKYDPNVYSIKYNNQLATRTAQAIFDDSYLGYSVAVGDFNGDGIDDFVSGVPRAARTLGMVYIYDGKNMSSLYNFTGEQMAAYFGFSVAATDINGDDYADVFIGAPLFMDRGSDGKLQEVGQVSVSLQRASGDFQTTKLNGFEVFARFGSAIAPLGDLDQDGFNDIAIAAPYGGEDKKGIVYIFNGRSTGLNAVPSQILEGQWAARSMPPSFGYSMKGATDIDKNGYPDLIVGAFGVDRAILYRARPVITVNAGLEVYPSILNQDNKTCSLPGTALKVSCFNVRFCLKADGKGVLPRKLNFQVELLLDKLKQKGAIRRALFLYSRSPSHSKNMTISRGGLMQCEELIAYLRDESEFRDKLTPITIFMEYRLDYRTAADTTGLQPILNQFTPANISRQAHILLDCGEDNVCKPKLEVSVDSDQKKIYIGDDNPLTLIVKAQNQGEGAYEAELIVSIPLQADFIGVVRNNEALARLSCAFKTENQTRQVVCDLGNPMKAGTQLLAGLRFSVHQQSEMDTSVKFDLQIQSSNLFDKVSPVVSHKVDLAVLAAVEIRGVSSPDHVFLPIPNWEHKENPETEEDVGPVVQHIYELRNNGPSSFSKAMLHLQWPYKYNNNTLLYILHYDIDGPMNCTSDMEINPLRIKISSLQTTEKNDTVAGQGERDHLITKRDLALSEGDIHTLGCGVAQCLKIVCQVGRLDRGKSAILYVKSLLWTETFMNKENQNHSYSLKSSASFNVIEFPYKNLPIEDITNSTLVTTNVTWGIQPAPMPVPVWVIILAVLAGLLLLAVLVFVMYRMGFFKRVRPPQEEQEREQLQPHENGEGNSET
chain 2: GPNICTTRGVSSCQQCLAVSPMCAWCSDEALPLGSPRCDLKENLLKDNCAPESIEFPVSEARVLEDRPLSDKGSGDSSQVTQVSPQRIALRLRPDDSKNFSIQVRQVEDYPVDIYYLMDLSYSMKDDLWSIQNLGTKLATQMRKLTSNLRIGFGAFVDKPVSPYMYISPPEALENPCYDMKTTCLPMFGYKHVLTLTDQVTRFNEEVKKQSVSRNRDAPEGGFDAIMQATVCDEKIGWRNDASHLLVFTTDAKTHIALDGRLAGIVQPNDGQCHVGSDNHYSASTTMDYPSLGLMTEKLSQKNINLIFAVTENVVNLYQNYSELIPGTTVGVLSMDSSNVLQLIVDAYGKIRSKVELEVRDLPEELSLSFNATCLNNEVIPGLKSCMGLKIGDTVSFSIEAKVRGCPQEKEKSFTIKPVGFKDSLIVQVTFDCDCACQAQAEPNSHRCNNGNGTFECGVCRCGPGWLGSQCECSEEDYRPSQQDECSPREGQPVCSQRGECLCGQCVCHSSDFGKITGKYCECDDFSCVRYKGEMCSGHGQCSCGDCLCDSDWTGYYCNCTTRTDTCMSSNGLLCSGRGKCECGSCVCIQPGSYGDTCEKCPTCPDACTFKKECVECKKFDRGALHDENTCNRYCRDEIESVKELKDTGKDAVNCTYKNEDDCVVRFQYYEDSSGKSILYVVEEPECPKGPDILVVLLSVMGAILLIGLAALLIWKLLITIHDRKEFAKFEEERARAKWDTANNPLYKEATSTFTNITYRGT
modifications: here or on the partner: cyclic peptide (cyclo); f = D-phenylalanine
Q: With B2 as the binder, how does the Δf1 read?
A: 0.913 Hz
